From publication PMC3630801 (Biochemistry, 2013)
Where two headings read alike, the source gives them in different places.

Assays:
DEER = target: the molecule itself; assay: DEER
[1] = target: T1, BtuB, Escherichia coli vitamin B12 transporter (wild type) (Escherichia coli, UniProt P06129 21-614); assay: continuous-wave EPR lineshape
T1 sequence (looked up): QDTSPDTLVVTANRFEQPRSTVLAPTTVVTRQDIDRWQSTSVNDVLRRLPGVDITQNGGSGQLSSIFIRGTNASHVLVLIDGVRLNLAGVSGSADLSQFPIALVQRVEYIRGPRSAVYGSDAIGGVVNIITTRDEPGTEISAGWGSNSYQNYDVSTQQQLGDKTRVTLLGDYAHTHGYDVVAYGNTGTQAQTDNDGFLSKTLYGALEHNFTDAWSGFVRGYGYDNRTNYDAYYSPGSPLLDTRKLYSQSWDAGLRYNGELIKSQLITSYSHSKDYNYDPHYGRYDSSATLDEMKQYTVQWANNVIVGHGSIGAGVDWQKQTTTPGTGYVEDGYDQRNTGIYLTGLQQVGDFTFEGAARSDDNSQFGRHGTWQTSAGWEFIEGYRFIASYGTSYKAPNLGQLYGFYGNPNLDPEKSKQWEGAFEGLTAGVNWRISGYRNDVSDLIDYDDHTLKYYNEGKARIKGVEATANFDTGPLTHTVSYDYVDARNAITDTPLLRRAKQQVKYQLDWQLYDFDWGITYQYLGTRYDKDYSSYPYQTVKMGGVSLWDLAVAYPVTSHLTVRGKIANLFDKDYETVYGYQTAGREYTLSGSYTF

[2] = target: T2, FecA, Escherichia coli ferric citrate transporter (Escherichia coli, UniProt P13036 34-774); assay: DEER
T2 sequence (looked up): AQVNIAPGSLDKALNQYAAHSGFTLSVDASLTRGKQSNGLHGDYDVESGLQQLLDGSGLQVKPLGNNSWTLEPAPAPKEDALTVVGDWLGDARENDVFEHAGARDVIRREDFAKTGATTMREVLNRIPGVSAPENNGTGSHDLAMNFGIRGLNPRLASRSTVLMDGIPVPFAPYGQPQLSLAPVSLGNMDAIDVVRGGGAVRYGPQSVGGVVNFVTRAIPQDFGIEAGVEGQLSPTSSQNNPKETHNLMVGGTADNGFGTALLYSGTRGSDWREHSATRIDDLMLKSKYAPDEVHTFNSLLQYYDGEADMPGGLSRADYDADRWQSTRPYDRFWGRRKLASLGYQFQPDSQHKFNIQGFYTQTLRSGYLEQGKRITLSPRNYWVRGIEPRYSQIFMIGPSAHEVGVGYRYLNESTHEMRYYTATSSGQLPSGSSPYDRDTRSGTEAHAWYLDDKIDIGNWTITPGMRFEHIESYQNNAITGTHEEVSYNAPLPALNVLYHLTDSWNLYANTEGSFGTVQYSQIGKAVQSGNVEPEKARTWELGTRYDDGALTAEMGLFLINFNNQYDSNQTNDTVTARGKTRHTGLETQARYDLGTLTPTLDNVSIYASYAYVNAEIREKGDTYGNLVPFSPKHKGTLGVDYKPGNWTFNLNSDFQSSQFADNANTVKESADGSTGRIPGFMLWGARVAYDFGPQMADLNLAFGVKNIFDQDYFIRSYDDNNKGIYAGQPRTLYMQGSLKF

[3] = target: T3, FhuA, Escherichia coli ferrichrome transporter (Escherichia coli, UniProt P06971 34-747); assay: DEER
T3 sequence (looked up): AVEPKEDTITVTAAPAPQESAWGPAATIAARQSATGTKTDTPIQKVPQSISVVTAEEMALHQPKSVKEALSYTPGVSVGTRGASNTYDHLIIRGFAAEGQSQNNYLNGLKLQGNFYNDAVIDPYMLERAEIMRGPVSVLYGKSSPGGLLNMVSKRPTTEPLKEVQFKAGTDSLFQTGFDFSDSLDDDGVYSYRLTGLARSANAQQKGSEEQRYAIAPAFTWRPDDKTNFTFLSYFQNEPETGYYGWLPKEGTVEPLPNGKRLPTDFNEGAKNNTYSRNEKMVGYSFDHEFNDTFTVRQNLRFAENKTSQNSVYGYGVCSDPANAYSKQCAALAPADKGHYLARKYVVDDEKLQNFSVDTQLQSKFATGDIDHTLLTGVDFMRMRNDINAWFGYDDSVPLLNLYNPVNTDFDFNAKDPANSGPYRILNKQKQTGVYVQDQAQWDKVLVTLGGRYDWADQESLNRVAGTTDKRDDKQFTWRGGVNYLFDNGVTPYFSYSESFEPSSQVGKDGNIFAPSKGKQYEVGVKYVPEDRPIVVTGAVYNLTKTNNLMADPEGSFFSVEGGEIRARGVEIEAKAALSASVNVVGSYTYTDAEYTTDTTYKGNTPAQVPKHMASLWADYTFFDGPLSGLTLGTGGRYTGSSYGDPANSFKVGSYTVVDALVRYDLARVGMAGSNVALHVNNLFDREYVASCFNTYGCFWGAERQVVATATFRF

[4] = target: T1, BtuB, Escherichia coli vitamin B12 …; assay: fluorescence polarisation
[5] = target: T3, FhuA, Escherichia coli ferrichrome …; assay: fluorescence polarisation
[6] = target: T1, BtuB, Escherichia coli vitamin B12 …; assay: fluorescence polarisation; remark: listed apart in the source
[7] = target: T3, FhuA, Escherichia coli ferrichrome …; assay: fluorescence polarisation; remark: listed apart in the source

B1: TonB_(ΔTMD) I224R1 (spin-labeled) (domain or fragment)
chain: not shown
modifications: R1 spin-label side chain (cysteine derivatized with MTSL) at 224
- binding result (DEER): binds
- binding result [1]: binds

B2: TonB_(ΔTMD) R187R1 (spin-labeled) (domain or fragment)
chain: not shown
modifications: R1 spin-label side chain (cysteine derivatized with MTSL) at 187
- binding result [1]: binds

B3: TonB_(ΔTMD) E203R1 (spin-labeled) (domain or fragment)
chain: not shown
modifications: R1 spin-label side chain (cysteine derivatized with MTSL) at 203
- binding result (DEER): binds
- binding result [2]: binds
- binding result [3]: binds
- binding result [1]: binds

B4: TonB_(ΔTMD) L194C labeled with BODIPY FL (domain or fragment)
chain: not shown
modifications: BODIPY FL N-(2-aminoethyl)maleimide on Cys194 (labeling efficiency ~75%)
- Kd [4]: 26 nM
- Kd [5]: 38 nM
- Kd [6]: 61 nM
- Kd [7]: 64 nM
